Data taken from doi:10.1101/2020.07.24.220665 (bioRxiv, 2020).
Several values for one entry are separate records, joined by “and”; a condition that tells them apart may be missing. Equal values may be shown once.

Target: the molecule itself
Experiment: non-reducing PAGE

Protein	binding result	stoichiometry N
granulin-5 (GRN-5) (natural protein, UniProt P28799 364-417, looked up) VPCDNVSSCPSSDTCCQLTSGEWGCCPIPEAVCCSDHQHCCPQGYTCVAEGQCQ	binds	
granulin-3 (GRN-3) (natural protein, UniProt P28799 206-261, looked up) VMCPDARSRCPDGSTCCELPSGKWGCCPMPNATCCSDHLHCCPQDTVCDLIQSKCL		2 and 3
